Consider 7 substances from PMC2928003.

Where “and” joins values, the source holds several entries; their conditions need not be identical. Equal entries are not always repeated.

In assay [1] the target is nonmuscle myosin IIB (mouse (endogenous in NIH3T3)) (UniProt Q61879). Description: co-IP.
Assay [2] concerns the target nonmuscle myosin IIB (rat (endogenous in PC12 and rat brain)) (UniProt Q9JLT0). The assay can be described thus: co-IP.
Assay [3] has as its target nonmuscle myosin IIA (mouse (endogenous in NIH3T3)) (UniProt Q8VDD5). The assay can be described thus: co-IP.
Another assay concerns the target the DH–PH domains. Description: pull-down.
Assay [4] concerns the target Tiam1 DH–PH domain (aa 1048–1406), His-tagged (UniProt Q60610). Description: SPR.
For assay [5], the target named is Vav1 DH–PH domain (aa 195–508), His-tagged (UniProt P15498). The assay can be described thus: SPR. In general terms: Surface plasmon resonance follows binding to a sensor surface in real time, without labels.
The target in assay [6] is βPIX DH–PH domain (aa 100–400), His-tagged (UniProt O55043). The assay can be described thus: SPR.
Chain of βPIX DH–PH domain (aa 100–400), His-tagged (O55043 100-400): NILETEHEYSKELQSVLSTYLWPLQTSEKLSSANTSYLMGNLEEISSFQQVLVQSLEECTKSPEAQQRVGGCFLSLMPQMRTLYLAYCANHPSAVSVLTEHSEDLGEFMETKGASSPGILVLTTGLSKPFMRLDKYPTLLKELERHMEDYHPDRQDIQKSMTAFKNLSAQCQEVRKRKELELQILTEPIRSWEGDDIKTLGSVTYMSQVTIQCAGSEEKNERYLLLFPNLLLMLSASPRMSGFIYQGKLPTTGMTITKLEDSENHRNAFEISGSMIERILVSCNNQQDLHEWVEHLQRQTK

Chain of nonmuscle myosin IIB (rat (endogenous in PC12 and rat brain)) (Q9JLT0 whole entry): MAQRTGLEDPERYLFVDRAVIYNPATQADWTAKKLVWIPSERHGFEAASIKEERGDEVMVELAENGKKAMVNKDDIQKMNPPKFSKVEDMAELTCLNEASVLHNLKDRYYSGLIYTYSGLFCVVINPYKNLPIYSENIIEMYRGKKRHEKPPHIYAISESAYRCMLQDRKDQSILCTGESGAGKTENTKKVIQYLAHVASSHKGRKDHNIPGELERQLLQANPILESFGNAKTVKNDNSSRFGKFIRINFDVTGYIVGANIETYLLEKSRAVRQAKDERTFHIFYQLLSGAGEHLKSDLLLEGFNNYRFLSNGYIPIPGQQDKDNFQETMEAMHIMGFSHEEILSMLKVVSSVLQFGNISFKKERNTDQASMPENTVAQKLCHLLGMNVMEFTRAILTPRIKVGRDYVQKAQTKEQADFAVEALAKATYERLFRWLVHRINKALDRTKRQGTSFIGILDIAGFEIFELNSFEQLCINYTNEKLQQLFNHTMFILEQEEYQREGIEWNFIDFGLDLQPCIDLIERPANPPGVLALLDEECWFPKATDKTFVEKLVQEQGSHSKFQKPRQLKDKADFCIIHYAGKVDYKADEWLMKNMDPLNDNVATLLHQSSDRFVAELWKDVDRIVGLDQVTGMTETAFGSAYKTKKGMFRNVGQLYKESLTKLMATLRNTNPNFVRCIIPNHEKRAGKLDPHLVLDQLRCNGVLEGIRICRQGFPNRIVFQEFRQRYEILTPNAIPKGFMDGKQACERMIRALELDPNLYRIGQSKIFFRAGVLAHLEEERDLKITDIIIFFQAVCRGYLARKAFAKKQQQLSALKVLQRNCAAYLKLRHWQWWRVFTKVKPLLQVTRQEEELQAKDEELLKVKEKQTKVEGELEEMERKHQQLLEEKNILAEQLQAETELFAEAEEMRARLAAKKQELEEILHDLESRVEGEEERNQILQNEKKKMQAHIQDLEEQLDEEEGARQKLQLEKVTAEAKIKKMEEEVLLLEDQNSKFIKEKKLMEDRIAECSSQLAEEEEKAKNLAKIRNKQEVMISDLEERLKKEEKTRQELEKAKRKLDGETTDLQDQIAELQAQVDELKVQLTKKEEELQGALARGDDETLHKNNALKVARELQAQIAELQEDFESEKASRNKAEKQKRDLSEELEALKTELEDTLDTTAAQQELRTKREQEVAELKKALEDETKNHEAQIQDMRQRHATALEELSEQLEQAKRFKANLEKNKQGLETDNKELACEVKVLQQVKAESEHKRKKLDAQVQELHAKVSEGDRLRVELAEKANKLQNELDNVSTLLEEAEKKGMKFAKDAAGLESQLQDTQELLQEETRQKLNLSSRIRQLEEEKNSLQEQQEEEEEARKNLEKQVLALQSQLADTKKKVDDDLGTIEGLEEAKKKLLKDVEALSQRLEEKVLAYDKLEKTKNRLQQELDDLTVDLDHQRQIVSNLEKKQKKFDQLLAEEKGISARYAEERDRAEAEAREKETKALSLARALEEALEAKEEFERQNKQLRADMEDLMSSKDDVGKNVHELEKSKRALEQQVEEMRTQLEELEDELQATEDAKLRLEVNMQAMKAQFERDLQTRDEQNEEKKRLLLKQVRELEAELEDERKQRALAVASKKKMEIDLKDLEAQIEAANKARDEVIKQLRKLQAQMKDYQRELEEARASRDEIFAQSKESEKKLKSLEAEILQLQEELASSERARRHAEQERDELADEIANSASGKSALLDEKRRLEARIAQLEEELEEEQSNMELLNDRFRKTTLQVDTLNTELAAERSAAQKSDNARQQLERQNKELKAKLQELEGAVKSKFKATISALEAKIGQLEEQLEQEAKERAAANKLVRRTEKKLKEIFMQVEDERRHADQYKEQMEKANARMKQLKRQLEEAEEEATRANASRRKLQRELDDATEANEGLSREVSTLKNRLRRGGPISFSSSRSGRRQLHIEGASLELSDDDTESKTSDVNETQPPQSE
Chain of nonmuscle myosin IIB (mouse (endogenous in NIH3T3)) (Q61879 whole entry): as the sequence (Q9JLT0 whole entry) above, with K150M, K170E, T452A, N652T, G933E, M1304I, G1389S, E1969D counted along it
Chain of Vav1 DH–PH domain (aa 195–508), His-tagged (P15498 195-508): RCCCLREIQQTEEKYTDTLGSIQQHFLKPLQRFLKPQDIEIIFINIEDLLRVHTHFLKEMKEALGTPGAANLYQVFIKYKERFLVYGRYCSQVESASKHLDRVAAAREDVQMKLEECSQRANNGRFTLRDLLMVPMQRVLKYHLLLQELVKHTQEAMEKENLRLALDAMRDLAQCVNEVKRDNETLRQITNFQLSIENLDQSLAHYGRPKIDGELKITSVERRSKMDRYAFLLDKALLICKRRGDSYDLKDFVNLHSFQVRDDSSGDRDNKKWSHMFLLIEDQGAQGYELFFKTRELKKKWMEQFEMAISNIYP
Chain of nonmuscle myosin IIA (mouse (endogenous in NIH3T3)) (Q8VDD5 whole entry, the tested form may be a part): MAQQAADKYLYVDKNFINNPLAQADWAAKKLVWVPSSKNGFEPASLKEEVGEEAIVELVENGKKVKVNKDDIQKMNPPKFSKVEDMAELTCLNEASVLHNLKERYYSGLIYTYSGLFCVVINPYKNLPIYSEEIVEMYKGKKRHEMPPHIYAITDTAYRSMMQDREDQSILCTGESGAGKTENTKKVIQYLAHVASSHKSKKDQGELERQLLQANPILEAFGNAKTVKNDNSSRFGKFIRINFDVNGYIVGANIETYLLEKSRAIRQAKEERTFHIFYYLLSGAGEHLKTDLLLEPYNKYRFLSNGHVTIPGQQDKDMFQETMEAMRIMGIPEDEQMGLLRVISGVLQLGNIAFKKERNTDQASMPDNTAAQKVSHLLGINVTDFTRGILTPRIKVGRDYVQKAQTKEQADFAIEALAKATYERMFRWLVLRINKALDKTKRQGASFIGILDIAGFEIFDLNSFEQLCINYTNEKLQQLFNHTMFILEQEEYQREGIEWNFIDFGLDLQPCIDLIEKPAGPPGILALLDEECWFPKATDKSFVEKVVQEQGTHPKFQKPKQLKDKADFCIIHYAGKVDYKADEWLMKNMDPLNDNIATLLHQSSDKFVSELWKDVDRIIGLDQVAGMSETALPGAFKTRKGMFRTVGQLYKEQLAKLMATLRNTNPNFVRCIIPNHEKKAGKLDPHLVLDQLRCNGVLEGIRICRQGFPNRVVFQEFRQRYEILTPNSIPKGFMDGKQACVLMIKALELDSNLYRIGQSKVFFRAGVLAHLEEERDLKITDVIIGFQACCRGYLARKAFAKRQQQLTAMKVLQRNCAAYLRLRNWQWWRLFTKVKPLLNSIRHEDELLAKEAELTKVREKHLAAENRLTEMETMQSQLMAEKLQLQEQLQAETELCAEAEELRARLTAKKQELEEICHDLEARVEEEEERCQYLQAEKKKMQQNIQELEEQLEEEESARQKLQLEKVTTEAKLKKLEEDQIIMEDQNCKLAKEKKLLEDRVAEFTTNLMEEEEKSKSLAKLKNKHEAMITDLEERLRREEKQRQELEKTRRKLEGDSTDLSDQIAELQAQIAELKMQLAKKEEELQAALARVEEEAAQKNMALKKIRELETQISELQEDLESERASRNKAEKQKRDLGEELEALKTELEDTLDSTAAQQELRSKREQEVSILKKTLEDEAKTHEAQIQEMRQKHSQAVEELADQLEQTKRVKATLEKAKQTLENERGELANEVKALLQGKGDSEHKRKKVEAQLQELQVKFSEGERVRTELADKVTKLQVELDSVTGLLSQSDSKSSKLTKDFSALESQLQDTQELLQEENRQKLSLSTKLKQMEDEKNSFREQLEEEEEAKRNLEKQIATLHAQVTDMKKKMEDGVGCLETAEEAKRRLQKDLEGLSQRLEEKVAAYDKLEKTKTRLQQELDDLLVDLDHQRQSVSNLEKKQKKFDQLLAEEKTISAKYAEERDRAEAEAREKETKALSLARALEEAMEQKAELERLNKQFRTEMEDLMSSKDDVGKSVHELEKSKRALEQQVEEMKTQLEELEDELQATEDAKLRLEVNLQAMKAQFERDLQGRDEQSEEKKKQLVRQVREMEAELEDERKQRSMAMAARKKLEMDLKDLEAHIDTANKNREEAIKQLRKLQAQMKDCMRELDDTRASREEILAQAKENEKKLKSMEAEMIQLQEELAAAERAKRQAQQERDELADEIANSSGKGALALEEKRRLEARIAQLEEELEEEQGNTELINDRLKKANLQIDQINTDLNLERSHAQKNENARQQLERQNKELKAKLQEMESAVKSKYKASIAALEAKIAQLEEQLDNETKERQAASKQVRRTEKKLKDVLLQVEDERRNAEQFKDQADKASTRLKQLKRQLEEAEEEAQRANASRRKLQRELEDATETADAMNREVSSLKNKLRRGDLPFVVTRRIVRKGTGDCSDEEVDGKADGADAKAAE
Chain of Tiam1 DH–PH domain (aa 1048–1406), His-tagged (Q60610 1048-1406): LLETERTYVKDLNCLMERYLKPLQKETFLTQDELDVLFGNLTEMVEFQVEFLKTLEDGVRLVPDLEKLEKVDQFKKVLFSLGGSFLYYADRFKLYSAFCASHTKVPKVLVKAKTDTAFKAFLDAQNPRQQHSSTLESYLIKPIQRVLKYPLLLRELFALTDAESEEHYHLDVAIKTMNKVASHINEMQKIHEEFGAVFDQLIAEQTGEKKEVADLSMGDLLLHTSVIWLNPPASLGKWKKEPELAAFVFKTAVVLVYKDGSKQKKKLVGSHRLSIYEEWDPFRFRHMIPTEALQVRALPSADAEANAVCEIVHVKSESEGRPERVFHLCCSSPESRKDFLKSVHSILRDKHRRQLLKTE

As to Dbl (natural protein), the percent of the GEF of the lysate found in the MIIB IP in assay [1] came out at 1.3%.
In turn, FGD1 (natural protein) registered a percent of the GEF of the lysate found in the MIIB IP in assay [2] of 8.1%.
The same measure, in the same setting: the figure for LARG (natural protein) is 1%; for Tiam1 (natural protein) it is 1.6%.
Turning to Trio, Q0KL02 1-3102 (natural protein), in assay [3], the percent of the GEF of the lysate found in the MIIA IP is 10.7%. The substance also had a percent of the GEF of the lysate found in the MIIB IP in assay [1] of 8.7%.
Take “kalirin, P97924 1-2959 (natural protein)”: the percent of the GEF of the lysate found in the MIIB IP in assay [2] was determined as 5.6%.
Consider “skeletal muscle myosin II (from UniProt Q28641 1-1938; P02602 1-192; P02608 1-170) (complex)”, for which the fold of association with F-actin over without F-actin with the DH–PH domains is 2 fold and 4 fold. Further, the figures for the Kd in assay [4], in assay [5] and in assay [6] were 290 nM, 390 nM and 260 nM, respectively.

By Kd is commonly meant the concentration at which binding is half-saturated. High values mean a looser complex, low ones a tighter complex.
